Target: A3B-CTD (APOBEC3B C-terminal domain, wild type) (Homo sapiens, UniProt Q9UH17 187-382)
Experiment: NMR titration

Chain of A3B-CTD (APOBEC3B C-terminal domain, wild type) (Q9UH17 187-382): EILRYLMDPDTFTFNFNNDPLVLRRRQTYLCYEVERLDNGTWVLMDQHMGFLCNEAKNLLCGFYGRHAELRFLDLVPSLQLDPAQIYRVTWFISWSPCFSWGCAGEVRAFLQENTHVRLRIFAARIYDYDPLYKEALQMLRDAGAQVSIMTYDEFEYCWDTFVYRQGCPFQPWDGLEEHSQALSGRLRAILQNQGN

Binder: ATTTUATTT (ssDNA, deoxyuridine at position 5 (DNA oligonucleotide, U in place of target C)) [9-nt U-containing oligonucleotide ATTTUATTT]
- Kd: 119 ± 26 µM
